For five substances, Kd, stoichiometry N and Kd of the second site (two-site model, one site fixed to 16.6 μM) results are on record in paper PMC3374753.

Where two headings read alike, the source gives them in different places.

Test [1] concerns the target retromer cargo-selective complex (CSC), trimer of VPS35, VPS29 and VPS26 (UniProt Q96QK1). In words: ITC. Background: ITC needs no label: the signal is the heat of the interaction.
Test [2] has the same target. In words: ITC. The source holds these as a separate data set.

For the substance “FC fragment of FAM21 (938-1341 without 1029-1047) as used in ITC (domain or fragment)”, in test [1], the Kd (in general, a measure of binding affinity in units of concentration) was determined as 2.4 µM and the stoichiometry N (usually the number of molecules, sites or subunits per partner or assembly) turned out to be 0.42.
In test [1], “FN fragment of FAM21 (356-600) as used in ITC (domain or fragment)” yielded a Kd of 11.5 µM and a stoichiometry N of 0.32.
In test [1], “R19-20 for ITC (FAM21 1250-1317, Trp, His6) (domain or fragment)” yielded a dissociation constant Kd of 6.8 µM and a stoichiometry N of 0.39.
As to “R20-21 for ITC (FAM21 1278-1341, Trp, His6) (domain or fragment)”, in test [1], the Kd fell in the range of 2.5 to 16.6 µM; the Kd of the second site (two-site model, one site fixed to 16.6 μM) was found to be 3 µM; the stoichiometry N came out at 0.49. The substance further came in with a dissociation constant Kd in test [2] of 3.2 µM.
In test [1], “R21 for ITC (FAM21 1309-1341, Trp, His6) (domain or fragment)” had a Kd of 16.6 µM and a stoichiometry N of 0.82.
